This is an account of results in paper PMC3748058 (2013).

B1: GFP lamin A WT [human] / GST Nesprin-2 SR52,53 [human] (parent complex)
chain 1: METPSQRRATRSGAQASSTPLSPTRITRLQEKEDLQELNDRLAVYIDRVRSLETENAGLRLRITESEEVVSREVSGIKAAYEAELGDARKTLDSVAKERARLQLELSKVREEFKELKARNTKKEGDLIAAQARLKDLEALLNSKEAALSTALSEKRTLEGELHDLRGQVAKLEAALGEAKKQLQDEMLRRVDAENRLQTMKEELDFQKNIYSEELRETKRRHETRLVEIDNGKQREFESRLADALQELRAQHEDQVEQYKKELEKTYSAKLDNARQSAERNSNLVGAAHEELQQSRIRIDSLSAQLSQLQKQLAAKEAKLRDLEDSLARERDTSRRLLAEKEREMAEMRARMQQQLDEYQELLDIKLALDMEIHAYRKLLEGEEERLRLSPSPTSQRSRGRASSHSSQTQGGGSVTKKRKLESTESRSSFSQHARTSGRVAVEEVDEEGKFVRLRNKSNEDQSMGNWQIKRQNGDDPLLTYRFPPKFTLKAGQVVTIWAAGAGATHSPPTDLVWKAQNTWGCGNSLRTALINSTGEEVAMRKLVRSVTVVEDDEDEDGDDLLHHHHGSHCSSSGDPAEYNLRSRTVLCGTCGQPADKASASGSGAQVGGPISSGSSASSVTVTRSYRSVGGSGGGSFGDNLVTRSYLLGNSSPRTQSPQNCSIM
chain 2: SRFEDWLKSAERTAACPNSSEVLYTSAKEELKRFEAFQRQIHERLTQLELINKQYRRLARENRTDTASRLKQMVHEGNQRWDNLQRRVTAVLRRLRHFTNQREEFEGTRESILVWLTEMDLQLTNVEHFSESDADDKMRQLNGFQQEITLNTNKIDQLIVFGEQLIQKSEPLDAVLIEDELEELHRYCQEVFGRVSRFHRRL

The variants in this test derive from B1. The experiment in a line: GST pull-down, western blot quantification; COS7 cell lysates; four to seven independent experiments; parent: 0; read off a plot. (A western blot detects proteins with antibodies after separation by electrophoresis.)
Turning to chain 1 L421P, the screen value was around -29%.

As to chain 1 G411D, the screen value was around 11%.

Consider chain 1 R427G, for which the screen value is around -15%.

In the case of chain 1 V415I, the screen value was around 55%.

Regarding chain 1 R419C, the screen value was around -10%.

chain 1 R401C: the screen value was around 51%.

In the case of chain 1 G413C, the screen value was around -22%.
